Key:
[1] = biological target: recombinant von Willebrand factor (VWF) A2 domain polypeptide, A2_(1481-1668) (human) (UniProt P04275); assay: ELISA
[2] = biological target: fibrin monomer (UniProt P02675); assay: ELISA

Chain of recombinant von Willebrand factor (VWF) A2 domain polypeptide, A2_(1481-1668) (P04275 1481-1668): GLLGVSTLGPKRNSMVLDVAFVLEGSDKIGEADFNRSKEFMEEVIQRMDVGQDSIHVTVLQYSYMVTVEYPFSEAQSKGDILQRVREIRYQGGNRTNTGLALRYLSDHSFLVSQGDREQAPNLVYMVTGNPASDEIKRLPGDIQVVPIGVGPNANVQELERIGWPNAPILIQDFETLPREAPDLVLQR
Chain of recombinant von Willebrand factor (VWF) A2 domain polypeptide, A2_(1481-1668) (human) (P04275 1481-1668): as above

fibrin monomer (from UniProt P02675 45-491; P02679 27-453) (complex)
EC50 [1]: 7 nM

recombinant von Willebrand factor (VWF) A2 domain polypeptide, A2_(1481-1668) (from UniProt P04275 1481-1668) (domain or fragment)
EC50 [2]: 60 nM

Reference: article PMC5270629
